# ± gives the half width of the 95% confidence interval.
# Test: folding stability dG unfold from chymotrypsin proteolysis; higher = more stable
# Outline: (§1)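 Designed mini-proteins (under 80 residues, no cysteine) in a PA-tagged cDNA display construct were digested with trypsin and chymotrypsin. Each protease was used at 11 concentrations (threefold dilutions) plus a no-protease condition, followed by sequencing. K50 was inferred by Bayesian fitting of sequencing counts, and unfolding free energy was derived against a sequence-predicted unfolded-state K50 and a shared folded-state K50, per protease or combined. Only designs with AlphaFold2 dimer inter-PAE above 15 were kept.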
row,Sequence,folding stability dG unfold
1,SAGGSAGGKEIKVIELPEEKVTIEVTITLEDGTVIKVTAVIDAETGEIVEITSVEIVPLPAEEKSAGGSAGG [r6_927_TrROS_Hall],1.88 ± 0.2 kcal/mol
2,SAGGSAGGSMVYTPPEVLTPVREVTITVTTSSYSPSGGTPVTSTSTVPVLVYKDPSGRTAIVPPSAGGSAGG [r6_278_JUSTAS],0.195 ± 0.19 kcal/mol
3,SAGGSAGGSAGGGNPFLVRTEFFTLPDNTVIRRLAVVHSDGSLSVFPSLLPVPPNSLKLSAGGSAGGSAGGS [r10_280_TrMRF],1.18 ± 0.087 kcal/mol
4,SAGGSAGGSAGGSPPMPMRIDEVEYDPPNGRYEITVEPDNGNPQTITMPPGNIDEAYIVSAGGSAGGSAGGS [r4_51_TrROS],0.978 ± 0.042 kcal/mol
5,SAGMDIIKELLEKNPKPKVIRMHMNPPNGYFRIQVNGKPIDLPLPPGHYEMEFVVDPKGKIEDVKPHPMSAG [r5_329_TrROS],0.51 ± 0.16 kcal/mol
6,SAGGSAGGSAGGPVVEELEEDLVTEYFRDGDDLYKVVFIPGTGKPFEKKIESIPPDEPFSAGGSAGGSAGGS [r10_240_TrMRF],-0.0602 ± 0.21 kcal/mol
7,SAGGSAGGSAGGPPKPIKVLLYKPEENKLYVLVFPEGVSLEEVKKYVESHPNFKIVSVEGSAGGSAGGSAGG [r7_624_TrMRF],3 ± 0.051 kcal/mol
8,SAGGSAGGSAGGSPGVGERVVPVEDGVVRVRVFPDFAVVEYENGGVETMTLDDLVRALSSAGGSAGGSAGGS [r4_242_TrMRF],0.65 ± 0.053 kcal/mol
9,SAGGSKKVPIKVKIEVYNKNGEKMTLEELLKKLEENAKVEKDEKGRLTLYIVNKKTNKIVKIEVEKSAGGSA [r2_234_TrROS_Hall],1.92 ± 0.19 kcal/mol
10,SAGGMHHLEIYRFEDRKLVVLHLEDKPVVIEVEPGLTEEEAAEKAIEALKEAFPDKEIVIDSVEVKEESAGG [r13_884_TrMRF],0.41 ± 0.11 kcal/mol
11,SAGKKLLVVVEIRVFDKDGKLVREERLVIEVPEEDEEALRRLLEEARRLAEALLPPGARVEIRVRVLPPSAG [r5_793_TrROS_Hall],3.82 ± 0.11 kcal/mol
12,SEKLVIFVPPNMTVEEIVALAKKYPDKEIVIVMPPNMSEEQKERILKALRDAGLPEGVKVTIVEVEPEDLSA [r9_670_TrROS_Hall],3.81 ± 0.16 kcal/mol
13,SAGGSMPVEIKLLEEEVLPDGVTIKKVKAEDGSEMTVTVTKLPGNTYKVTITNPANGTTSTFTLPESAGGSA [r2_361_JUSTAS],1.73 ± 0.055 kcal/mol
14,SAGGSAGGSAGGPEIVSAEVLAVFDDGKLVKVKLRVPTPGKGYRYLEAVFLVKPGEKLLSAGGSAGGSAGGS [r10_1183_TrMRF],2.12 ± 0.033 kcal/mol
15,SAGGMYRVKVGDDERLIDTDPENFKTLEEAVKKVAEKIKEEYPNRPELTITVEAEDGTPLATVTITLSSAGG [r13_257_JUSTAS],0.614 ± 0.19 kcal/mol
16,SAGGSAGGSAGGPTITSSKIVAEYPGGKVIEVTIEEPLPTPSTVTKTVTLFIPEGSVLLSAGGSAGGSAGGS [r10_1183_JUSTAS],0.402 ± 0.15 kcal/mol
17,SAGGSARIKIDPPGKIKVYYNGQPFTIKPGVELDIQRTDDMIVLRIRMRDPDGKPVGEFPFMFRIKSAGGSA [r15_424_TrROS],2.59 ± 0.23 kcal/mol
18,SAGPPIWIRAEIEHPRPNPDDGEPQERKREVWIRLPEDLLENGMPVEELAKELASNYPGYKVKIDEILSAGG [r19_110_TrROS],-0.915 ± 0.38 kcal/mol
19,SAGGSAGTVKFKQPFPFYDPGNGWPFPIDIKITVEYKPDPNGEPKWQITKIEIKMPEGSPALKDLISAGGSA [r15_258_TrROS],2.24 ± 0.048 kcal/mol
20,SAGGSAGGGSLTPLSEDETTITLRLSPSLDEVLKELGLTVTGVEEEGETVTVTVKVSPEVKEKLSAGGSAGG [r6_109_JUSTAS],-0.183 ± 0.2 kcal/mol
21,SAGGSAGGSAGDTLILVRNEDGRLYLIRVRAYRVPGEDGSLVFEVEIVEFPSLEEALAALSAGGSAGGSAGG [r11_967_TrROS_Hall],4.825 ± 0.039 kcal/mol

# Test: folding stability dG unfold (combined trypsin and chymotrypsin); higher = more stable
# Outline: as §1
row,Sequence,folding stability dG unfold
1,SAGMSLEEIAKEFAKKKGLKKVEIKYYPEKKTYEIKVYLEEPGEPKTATIKVEDVTPETFKKAIEEILESAG [r5_896_TrMRF],4.83 ± 0.41 kcal/mol
2,SAGGSAGGSAGGSSMTIEEQKEKIKKEVPLGKSVTIEYPDKTVTLTIDPKSGKITVTISSAGGSAGGSAGGS [r4_150_JUSTAS],1.17 ± 0.12 kcal/mol
3,SAGMYMVTITWEYPNGWTFEFMVFVRGPNPEEAREQVDEAAREIFEQRDHPIKDVKVDVQPMPPGQEISAGG [r19_335_TrROS],2.84 ± 0.23 kcal/mol
4,SAGGMSTTKTVTSGGSTVTITTEPLPDGTTLSTVTVKSGGSPVTTITIPTSQLGEVAAAGGFAPADLLSAGG [r13_108_JUSTAS],0.15 ± 0.065 kcal/mol
5,SAGGSAGGSAGGNVIRVEKEPNTVVLYFPDGTYRVVEVEKKDESVKVLSEKVEPIVPGLLSAGGSAGGSAGG [r7_443_JUSTAS],0.702 ± 0.059 kcal/mol
6,SAGNIKIEVEELGPGWYVIKVEIPYDSPEQMLDMIKDIIRDFFGEPVKIDEVEIDPDEGWIEKTIRIPLSAG [r5_810_TrROS],1.67 ± 0.12 kcal/mol
7,SAGGMKIKIKIKPGQVILIKIRNKETGEEKTILVEVKEDQEITIELPEGYEIVDIKIVPLEDLPEEELSAGG [r13_119_TrROS_Hall],4.05 ± 0.23 kcal/mol
8,SAGGSAMMELEIEIKVEGMTEEELRELAERLAAELTPEGWKVVAVRVERVDEEEGVVRVTVVVEPVSAGGSA [r15_96_TrROS_Hall],4.18 ± 0.27 kcal/mol
9,SAGGSAGGSAGGMLALIYGKEKPILLSAEEILNNPELLKELEKKGYPIVKIEFFKEEELSAGGSAGGSAGGS [r10_396_TrMRF],0.817 ± 0.097 kcal/mol
10,SAGGSAGGSKKVYLKVTVYHKNGKKTTLEIGPITDEDGKPIETYAKELAEHPDVEKVEVEVLGSAGGSAGGS [r12_199_TrMRF],4.05 ± 0.17 kcal/mol
11,SAGGDVKEFDSPEDLNKALPALKNGKEVHIRVEMRMPQPDPDGEPRQYPMEFWYTIKLKNGELEIEPISAGG [r13_835_TrROS],0.827 ± 0.07 kcal/mol
12,SAGGSAGGRTLRIMVPMDSPEDAVEQAKEIVRELGLPPNFKIDDINVHRNPNGRYQVMVKIRVNSAGGSAGG [r6_284_TrROS],1.35 ± 0.064 kcal/mol
13,SAGGSAGGSAGNKYLIKVKKKNGNKSEELEIEVEDNPEIAEKIAEELKKKGNIVSVEIKKASAGGSAGGSAG [r3_310_TrMRF],0.66 ± 0.23 kcal/mol
14,SAGGSVRLELEGVNPETGERYRLEFELPPVPLPPVLVVPLEDLELLRRLGIPEDAAVFPELGLVVVASAGGS [r16_194_TrMRF],2.66 ± 0.12 kcal/mol
15,SAGGSAGGMTITISTGSSGLTVNITLTPPTGPPVTVTISFDPSELEEFLKELPDYEIESITVEGSAGGSAGG [r6_879_JUSTAS],2.8 ± 0.13 kcal/mol
16,SAGGSAGGSALLEALKALPPNATLTLVTVETRTETVTDADGSTHTRTTTRVTVTTITIRPEDLSAGGSAGGS [r12_805_TrROS_Hall],3.18 ± 0.12 kcal/mol
17,SAGGSAGGSAGVEEIAKILQELGFEVEVEPVPDGMRTIEVQNKNGKKITIRITADGKIEISAGGSAGGSAGG [r17_503_TrROS],2.09 ± 0.11 kcal/mol
18,SAGGSAGGSAGGMKTIVLPNVTPEEAEALAAELEKKYPGRTVNVTYVPENPTTVVITVGSAGGSAGGSAGGS [r10_852_JUSTAS],2.41 ± 0.087 kcal/mol
19,SAGMTTVEVTRTFPADVPVTEEDLELAEKEREEIAAELPESYVVTLASVTYERRPDSWTVTATFTITAPSAG [r5_121_JUSTAS],1.85 ± 0.045 kcal/mol
20,SAGGSAGGSAGMNPVVIETTETLPNGTVVRTTEIVDPSNPDKVVSTKTEISSVPSNAPLLSAGGSAGGSAGG [r17_299_JUSTAS],0.222 ± 0.11 kcal/mol
21,SAGGSAGGMKQYIVTVTLKSPDGTEHTIELETESLDEVKEKLKNLPDPNLELVELKVVPKEELASAGGSAGG [r6_297_JUSTAS],2.25 ± 0.13 kcal/mol

row,Sequence,folding stability dG unfold
1,SAGGSAGGKEIKVIELPEEKVTIEVTITLEDGTVIKVTAVIDAETGEIVEITSVEIVPLPAEEKSAGGSAGG [r6_927_TrROS_Hall],1.36 ± 0.21 kcal/mol
2,SAGGSAGGSMVYTPPEVLTPVREVTITVTTSSYSPSGGTPVTSTSTVPVLVYKDPSGRTAIVPPSAGGSAGG [r6_278_JUSTAS],0.159 ± 0.11 kcal/mol
3,SAGGSAGGSAGGGNPFLVRTEFFTLPDNTVIRRLAVVHSDGSLSVFPSLLPVPPNSLKLSAGGSAGGSAGGS [r10_280_TrMRF],0.914 ± 0.053 kcal/mol
4,SAGGSAGGSAGGSPPMPMRIDEVEYDPPNGRYEITVEPDNGNPQTITMPPGNIDEAYIVSAGGSAGGSAGGS [r4_51_TrROS],1.15 ± 0.16 kcal/mol
5,SAGMDIIKELLEKNPKPKVIRMHMNPPNGYFRIQVNGKPIDLPLPPGHYEMEFVVDPKGKIEDVKPHPMSAG [r5_329_TrROS],0.462 ± 0.16 kcal/mol
6,SAGGSAGGSAGGPVVEELEEDLVTEYFRDGDDLYKVVFIPGTGKPFEKKIESIPPDEPFSAGGSAGGSAGGS [r10_240_TrMRF],2.34e-05 ± 0.23 kcal/mol
7,SAGGSAGGSAGGPPKPIKVLLYKPEENKLYVLVFPEGVSLEEVKKYVESHPNFKIVSVEGSAGGSAGGSAGG [r7_624_TrMRF],2.72 ± 0.11 kcal/mol
8,SAGGSAGGSAGGSPGVGERVVPVEDGVVRVRVFPDFAVVEYENGGVETMTLDDLVRALSSAGGSAGGSAGGS [r4_242_TrMRF],0.601 ± 0.14 kcal/mol
9,SAGGSKKVPIKVKIEVYNKNGEKMTLEELLKKLEENAKVEKDEKGRLTLYIVNKKTNKIVKIEVEKSAGGSA [r2_234_TrROS_Hall],1.72 ± 0.27 kcal/mol
10,SAGGMHHLEIYRFEDRKLVVLHLEDKPVVIEVEPGLTEEEAAEKAIEALKEAFPDKEIVIDSVEVKEESAGG [r13_884_TrMRF],0.217 ± 0.11 kcal/mol
11,SAGKKLLVVVEIRVFDKDGKLVREERLVIEVPEEDEEALRRLLEEARRLAEALLPPGARVEIRVRVLPPSAG [r5_793_TrROS_Hall],3.6 ± 0.15 kcal/mol
12,SEKLVIFVPPNMTVEEIVALAKKYPDKEIVIVMPPNMSEEQKERILKALRDAGLPEGVKVTIVEVEPEDLSA [r9_670_TrROS_Hall],3.85 ± 0.19 kcal/mol
13,SAGGSMPVEIKLLEEEVLPDGVTIKKVKAEDGSEMTVTVTKLPGNTYKVTITNPANGTTSTFTLPESAGGSA [r2_361_JUSTAS],1.45 ± 0.077 kcal/mol
14,SAGGSAGGSAGGPEIVSAEVLAVFDDGKLVKVKLRVPTPGKGYRYLEAVFLVKPGEKLLSAGGSAGGSAGGS [r10_1183_TrMRF],2.1 ± 0.033 kcal/mol
15,SAGGMYRVKVGDDERLIDTDPENFKTLEEAVKKVAEKIKEEYPNRPELTITVEAEDGTPLATVTITLSSAGG [r13_257_JUSTAS],0.894 ± 0.29 kcal/mol
16,SAGGSAGGSAGGPTITSSKIVAEYPGGKVIEVTIEEPLPTPSTVTKTVTLFIPEGSVLLSAGGSAGGSAGGS [r10_1183_JUSTAS],0.361 ± 0.34 kcal/mol
17,SAGGSARIKIDPPGKIKVYYNGQPFTIKPGVELDIQRTDDMIVLRIRMRDPDGKPVGEFPFMFRIKSAGGSA [r15_424_TrROS],2.41 ± 0.24 kcal/mol
18,SAGPPIWIRAEIEHPRPNPDDGEPQERKREVWIRLPEDLLENGMPVEELAKELASNYPGYKVKIDEILSAGG [r19_110_TrROS],0.159 ± 0.15 kcal/mol
19,SAGGSAGTVKFKQPFPFYDPGNGWPFPIDIKITVEYKPDPNGEPKWQITKIEIKMPEGSPALKDLISAGGSA [r15_258_TrROS],2 ± 0.14 kcal/mol
20,SAGGSAGGGSLTPLSEDETTITLRLSPSLDEVLKELGLTVTGVEEEGETVTVTVKVSPEVKEKLSAGGSAGG [r6_109_JUSTAS],0.00369 ± 0.19 kcal/mol
21,SAGGSAGGSAGDTLILVRNEDGRLYLIRVRAYRVPGEDGSLVFEVEIVEFPSLEEALAALSAGGSAGGSAGG [r11_967_TrROS_Hall],4.66 ± 0.051 kcal/mol
